In one experiment the test system is U20S osteosarcoma cells. The experiment in a line: DNA content by flow cytometry in tet-regulated U20S transfectants. It is filed as cell-based. The conditions noted are these: clone 9, four days after removal of tetracycline (1000 ng/ml), in serum. The procedure:
To prepare a recombinant expression construct encoding Id2 which could be regulated by the addition of tetracycline to the culture media, the Kpn1/HindIII filled-in fragment of Id2 cDNA was inserted into the pUHD 10-3 vector (26) at EcoRI blunt-ended sites to prepare a tTA-responsive Id2 expression vector. DNA from pUHD-10-3Id2 was used in addition to DNA from pTet-TAk (GIBCO), encoding the tetracycline-regulatable tTA protein. Stable transfectants were prepared in the U20S osteosarcoma cell line by performing a 3 vector transfection using LipofectAmine (GIBCO) at a DNA ratio of 5:5:1 between pTet-Id2:ptet-TAk:pcDNA-3 and selected in the presence of DME/10%FBS/G418 (0.6 mg/ml)/tetracycline (5 μg/ml) media was changed after 2 days. […] To show expression of Id2, cells were trypsinized and plated with varying concentrations of tetracycline (0-1000 ng/ml).
To determine the extent of apoptosis in U20S cells transfected with pTet-Id2 DNA, cells were plated at a density of 5×10^5 cells per p100 plate and allowed to adhere for 24 hours in the presence of 1000 ng/ml tetracycline (tet). Then the media was changed to either 0 or 1000 ng/ml tet after 2 washes with PBS. The cells were maintained in the culture for 4 days before harvesting by trypsinization (floating cells were also harvested). […] DNA content was determined by flow cytometry on a FACSort (53).

Experiment [1] relates to 32D.3 myeloid cells. The experiment in a line: Apoptosis (TUNEL) assay in 32D.3 transfectants. It is filed as cell-based, mouse. The conditions noted are these: following IL-3 withdrawal, dex-induced expression. The source says:
cDNA constructs and establishment of cell lines. The mouse 32D.3 myeloid cell line was maintained in RPMI 1640 medium (GIBCO) supplemented with 10% fetal calf serum and 20U of IL-3 per ml as previously described (3, 12). The human IdI, Id2 and Id3 cDNAs (5, 6, 11) were introduced into the pMAM-Neo expression plasmid (Clontech, Palo Alto, Calif.) at the Xhol site. Mutations in Id2 and Id3 were generated by the polymerase chain reaction. To prepare an N-terminus deletion mutant, a 0.3 kb SalI-XhoI fragment lacking the region encoding amino acids 1-34 was inserted into the pMAM vector. A C-terminally truncated Id2 was prepared by removing a SmaI fragment containing cDNA corresponding to amino acids 93-135. Id2ΔHLH was prepared as previously described (34) and subcloned into the pMAM vector at the XhoI site. The primary structure of all mutants was confirmed by DNA sequencing. 32D.3 cells were electroporated as previously described with 10 μg of linearized plasmid DNA (12). […]
Expression of Id genes and immunoblot analysis. […] The expression of Bax proteins was monitored using a rabbit anti-Bax polyclonal sc-930 (Santa Cruz Biotechnology, Santa Cruz, Calif.). […]
Viability and apoptosis assays. […] The number of viable cells was determined at various times after IL-3 withdrawal by trypan blue dye exclusion. […]

Experiment [2] deals with 32D.3 myeloid cells. The experiment can be described thus: Viability by trypan blue dye exclusion in 32D.3 transfectants. The conditions noted are these: for rates of cell death: following withdrawal of IL-3, relative to control cells. The class given is cell-based, mouse. An excerpt:
cDNA constructs and establishment of cell lines. The mouse 32D.3 myeloid cell line was maintained in RPMI 1640 medium (GIBCO) supplemented with 10% fetal calf serum and 20U of IL-3 per ml as previously described (3, 12). The human IdI, Id2 and Id3 cDNAs (5, 6, 11) were introduced into the pMAM-Neo expression plasmid (Clontech, Palo Alto, Calif.) at the Xhol site. Mutations in Id2 and Id3 were generated by the polymerase chain reaction. To prepare an N-terminus deletion mutant, a 0.3 kb SalI-XhoI fragment lacking the region encoding amino acids 1-34 was inserted into the pMAM vector. A C-terminally truncated Id2 was prepared by removing a SmaI fragment containing cDNA corresponding to amino acids 93-135. Id2ΔHLH was prepared as previously described (34) and subcloned into the pMAM vector at the XhoI site. The primary structure of all mutants was confirmed by DNA sequencing. 32D.3 cells were electroporated as previously described with 10 μg of linearized plasmid DNA (12). Transfected cells were selected in medium containing 0.4/mg/ml G418 and single cell clones were isolated by limiting dilution, as well as pools of transfectants. To prepare additional cultures, drug-resistant clones and pools of clones were prepared by transfecting cells with pMAMNeo DNA alone and pMAMNeo containing Id2 cDNAs in the antisense orientation. 32D.3 cells were grown in suspension and maintained at equivalent exponential growth phases by seeding at 1×10^5 cells per ml culture medium. All subsequent analyses were performed using cells harvested at 0.5-1×10^6 cells per ml.
Viability and apoptosis assays. To investigate the effects of Id gene expression upon viability, cells growing exponentially in the presence of IL-3 (20 U/ml) were treated with dexamethasone for 16 hours. The cells were collected by centrifugation at 200×g for 10 min, washed twice in PBS, and resuspended in RPMI medium with 10% fetal bovine serum without IL-3. The number of viable cells was determined at various times after IL-3 withdrawal by trypan blue dye exclusion. […]

In the next experiment the test system is Bax. The experiment can be described thus: Immunoblot of apoptosis regulators in 32D.3 transfectants. It is filed as cell-based, mouse. How it is done: Expression of Id genes and immunoblot analysis. Id gene expression was induced by addition of 1 μM dexamethasone (Sigma) for 16 hours. Cells were then collected at the indicated times by centrifugation, washed in PBS, and whole cell lysates were prepared by resuspending the pellets in RIPA buffer (150 mM NaCl, 1 mM EDTA, 1% Nonidet P-40, 1% sodium deoxycholate, 20 mM Tris-HCl pH 7.2) containing protease inhibitors (1 μM phenylmethyl-sulfonylfluoride, 0.01 μM benzamidine HCl, 1 μg/ml o-phenanthroline, and 0.5 μg/ml each of antipain, leupeptin, pepstatin A, and aprotinin). The lysates were then clarified by centrifugation and examined by 12.5% SDS-PAGE. Western blot analysis was carried out to detect expression of Id proteins using the sc-489 rabbit polyclonal antibody against Id2 (Santa Cruz Biotechnology, Santa Cruz, Calif.) and rabbit polyclonal antibodies generated against bacterially expressed Id1 or Id3 (C. Hernandez, unpublished). The expression of Bax proteins was monitored using a rabbit anti-Bax polyclonal sc-930 (Santa Cruz Biotechnology, Santa Cruz, Calif.). Briefly, blots were washed with blocking buffer [4% milk powder and 0.2% Tween-20 in phosphate-buffered saline (PBS)], incubated with anti-Id2 or Bax antibodies (used at a 1:1000 dilution in blocking buffer), washed, and incubated with peroxidase-conjugated […]. […]
On the technique in general: Immunoblotting shows a protein as a band on a membrane.

Experiment [3] deals with 32D.3 myeloid cells. The experiment in a line: FACS analysis of subdiploid population in 32D.3 transfectants. To be noted: following IL-3 removal. It is filed as cell-based, mouse. How it is done: Id2 enhances apoptosis in 32D.3 myeloid cells following IL-3 withdrawal. Since Id2 levels in 32D.3 cells increased in association with IL-3 withdrawal, we examined the effect of increasing Id2 expression on the apoptotic response of these cells. 32D.3 myeloid progenitor cells were transfected with the dexamethasone (dex)-inducible pMAMNeo expression vector containing a full-length Id2 cDNA. The expression of Id2 in clones and pools of transfectants was determined in immunoblots, and we observed a 3-4 fold increase in Id2 protein levels upon treatment of the cells with dex for 16 hours as compared to cells transfected with vector DNA or with a pMAMNeo recombinant plasmid with Id2 in the antisense orientation.
In general terms: A flow cytometer gives signals particle by particle.

“Also recorded” adds a separate entry of the source.

B1: Id2: full-length Id2 helix-loop-helix protein expressed from transfected cDNA (pMAMNeo dex-inducible or tet-regulated vector) (protein, UniProt Q02363 1-134, looked up)
chain: MKAFSPVRSVRKNSLSDHSLGISRSKTPVDDPMSLLYNMNDCYSKLKELVPSIPQNKKVSKMEILQHVIDYILDLQIALDSHPTIVSLHHQRPGQNQASRTPLTTLNTDISILSLQASEFPSELMSNDSKALCG
modifications: full-length
As for B1, the “apoptotic cells with subdiploid DNA content” value with U20S osteosarcoma cells is “a large proportion of apoptotic cells with subdiploid DNA content”. In addition, in the experiment with 32D.3 myeloid cells [1], the “extent of apoptosis by the TUNEL assay” value is “significantly elevated apoptosis; also recorded: concentration-dependent; also recorded: expected enhancement in apoptosis”. In addition, the “rates of cell death” value in the experiment with 32D.3 myeloid cells [2] is recorded as “dramatically accelerated rates of death”. Moreover, the effects on viability result with 32D.3 myeloid cells [2] (presence of IL-3, 16 hours of treatment with dex) is reported as “only minor effects on viability”. Further, in the experiment with Bax (cultured in IL-3), the “levels of other known regulators including Bad, Bcl-2, Bcl-XL and Bcl-XS” value is “no changes”. Further, in the experiment with Bax (cultured in IL-3, relative to vector transfected cells), the Bax levels result is listed as “elevated”. The “subdiploid population, indicative of apoptotic DNA fragmentation” value in the experiment with 32D.3 myeloid cells [3] was “significantly augmented”.

B2: Id3: Id family helix-loop-helix protein expressed in 32D.3 cells from pMAMNeo (protein, UniProt P41133 1-119, looked up)
DNA-binding protein inhibitor …: MKALSPVRGCYEAVCCLSERSLAIARGRGKSPSTEEPLSLLDDMNHCYSRLRELVPGVPRGTQLSQVEILQRVIDYILDLQVVLAEPAPGPPDGPHLPIQTAELTPELVISKDKRSFCH
In the case of B2, the “rates of cell death” value with 32D.3 myeloid cells [2] is given as “without effect”.

These data come from US6127178A, “Apoptotic peptides” (The Regents of the University of California, priority 1998, dated 2000).
